Test results taken from publication PMC3170924 (Journal of molecular biology, 2011).

Molecular target: the molecule itself
Experiment: sedimentation assay

| Protein | Kn k+^2 (nucleation-elongation fit of sedimentation data) [M^−2s^−2] |
| --- | --- |
| KKWQQQQQQQQQQPGQQQQQQQQQQAKK (HELM PEPTIDE1{[ac].K.K.W.Q.Q.Q.Q.Q.Q.Q.Q.Q.Q.[dP].G.Q.Q.Q.Q.Q.Q.Q.Q.Q.Q.A.K.K.[am]}$$$$V2.0; SMILES CC(=O)N[C@@H](CCCCN)C(=O)N[C@@H](CCCCN)C(=O)N[C@@H](Cc1c[nH]c2ccccc12)C(=O)N[C@@H](CCC(N)=O)C(=O)N[C@@H](CCC(N)=O)C(=O)N[C@@H](CCC(N)=O)C(=O)N[C@@H](CCC(N)=O)C(=O)N[C@@H](CCC(N)=O)C(=O)N[C@@H](CCC(N)=O)C(=O)N[C@@H](CCC(N)=O)C(=O)N[C@@H](CCC(N)=O)C(=O)N[C@@H](CCC(N)=O)C(=O)N[C@@H](CCC(N)=O)C(=O)N1CCC[C@@H]1C(=O)NCC(=O)N[C@@H](CCC(N)=O)C(=O)N[C@@H](CCC(N)=O)C(=O)N[C@@H](CCC(N)=O)C(=O)N[C@@H](CCC(N)=O)C(=O)N[C@@H](CCC(N)=O)C(=O)N[C@@H](CCC(N)=O)C(=O)N[C@@H](CCC(N)=O)C(=O)N[C@@H](CCC(N)=O)C(=O)N[C@@H](CCC(N)=O)C(=O)N[C@@H](CCC(N)=O)C(=O)N[C@@H](C)C(=O)N[C@@H](CCCCN)C(=O)N[C@@H](CCCCN)C(N)=O) | 0.127 |
| Ac-KKWQQQQQQQQQQAAQQQQQQQQQQAKK-NH2 [AA peptide, K2WQ10AAQ10AK2 (polyglutamine peptide interrupted by AlaAla)] | 0.000197 |
| Ac-KKWQQQQQQQQQQQQQQQQQQQQAKK-NH2 [Q20 peptide, K2WQ20AK2 (uninterrupted polyglutamine control)] | 0.000235 |
